Results as given in patent US11739132B2, “Separation moieties and methods of use thereof” (Werewolf Therapeutics, Inc., priority 2019, dated 2023).
“Also recorded” adds a separate entry of the source. No end group written: not given here.

Tests used:
Factor Xa = biological target: T1, Factor Xa (Homo sapiens, UniProt P00742); assay: 30-mer library counter-screening MSP-MS, Factor Xa; assay type: biochemical
T1 construct: purchased R&D Systems (Bio-techne) 1063-SE-010
Procedure: (§1) Protease specificity screening was performed using Multiplexed Substrate Profiling by Mass Spectrometry (MSP-MS), the method described in, e.g. O'Donoghue A. J. et al., Nat Methods., 2012; 9(11): 1095-1100. This method employs a physico-chemically diverse peptide library as substrates for proteases, and reactions are monitored over time with mass spectrometric detection of cleaved products. The resulting cleavages are assessed for specific cleavage in the enzyme-treated sample by comparison with results from a no-enzyme control incubation.
(§2) Enzymes were activated and assayed following the manufacturer's recommendations.
Factor Xa was assayed at 4.7 nM enzyme, at 37° C. in the manufacturer recommended buffer: 50 mM TRIS, 10 mM CaCl2, 150 mM NaCl, pH 7.5.
(§3) Counter-screening was performed against the enzymes Thrombin, Factor Xa and Hepsin using this library as well, and for calibration of activity, a positive-control peptide bearing favorable motifs for these enzymes was also designed (ALU30-19).
Catalytic efficiency (kcat/KM) estimations were used to rank the top cleaved substrates in the MSP-MS reaction. Peptides were quantified by mass spectrometric label-free quantitation from the MS1 precursor ion peak areas for each peptide. Enzyme progress curves were modeled from six-time point measurements in GraphPad Prism. […]

[1] = tested on: full set of five targeted enzymes; thrombin, Factor Xa, and hepsin; assay: 30-mer tandem linker design: comparison of cleavage efficiencies across enzymes; assay type: biochemical, human
Source text: To generate the most efficient tandem linker, the cleavage efficiencies for each of the targeted enzymes toward the 30-mer library peptides can be compared (FIG. 64).
Replacement of the ADAM17_2 motif with ADAM17_i may also enhance activity toward FAP-alpha and CTSL1, even if ADAM17 activity enhancement is minor, and hepsin susceptibility would be predicted to be reduced.

Hepsin = biological target: T2, Hepsin (Homo sapiens, UniProt P05981); assay: 30-mer library counter-screening MSP-MS, Hepsin; assay type: biochemical
T2 construct: purchased R&D Systems (Bio-techne) 4776-SE
T2 sequence (P05981 163-417 limits assumed): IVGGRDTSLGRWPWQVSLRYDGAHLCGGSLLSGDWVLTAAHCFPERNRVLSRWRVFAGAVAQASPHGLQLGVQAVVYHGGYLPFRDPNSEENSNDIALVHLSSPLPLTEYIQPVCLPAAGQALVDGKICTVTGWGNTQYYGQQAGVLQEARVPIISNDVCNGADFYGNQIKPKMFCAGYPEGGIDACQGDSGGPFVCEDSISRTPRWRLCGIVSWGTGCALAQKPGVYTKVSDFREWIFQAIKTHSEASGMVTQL
T2 sequence (P05981 1-162 partner limits assumed): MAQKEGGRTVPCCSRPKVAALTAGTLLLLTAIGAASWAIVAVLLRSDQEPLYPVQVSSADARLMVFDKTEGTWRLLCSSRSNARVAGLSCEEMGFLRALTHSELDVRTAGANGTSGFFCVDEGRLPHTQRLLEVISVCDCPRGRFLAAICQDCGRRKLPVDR
Procedure: as §1, §2
Hepsin was pre-activated overnight at 37° C. in the manufacturer recommended buffer: 100 mM TRIS, 10 mM CaCl2, 150 mM NaCl, 0.05% Brij-35, pH 8.0. Activity was measured with 2.4 or 24 nM enzyme in the buffer: 50 mM TRIS HCl at pH 7.4.
as §3
(§4) Catalytic efficiency (kcat/KM) estimations were used to rank the top cleaved substrates in the MSP-MS reaction. Peptides were quantified by mass spectrometric label-free quantitation from the MS1 precursor ion peak areas for each peptide. Enzyme progress curves were modeled from six-time point measurements in GraphPad Prism. Data were fitted using non-linear least squares fitting to the first order kinetics equation:
(§5) [formula] where Y=percent product formation or substrate consumption, and t=time. The observed rate is a function of the enzyme concentration [E0], and an observed catalytic efficiency (kcat/KM) in units M^−1s^−1
(§6) Counter-screening with Thrombin, Factor Xa and Hepsin was also performed following the same analysis. The library peptide Alu30-19 was designed to include authentic sites for each enzyme, for comparison of overall cleavage efficiency as well as cleavage site specificity within each motif. The substrate designed for Factor Xa has the motif FNPR|TFGS (SEQ ID NO: 248), derived from the Factor Xa cleavage site in Thrombin. The substrate motif for Thrombin was FPR|, a common tool substrate motif. The substrate motif for hepsin was RKRR|GSRG (SEQ ID NO: 249) from filaggrin.

Cathepsin K (CTSK) = biological target: T3, Cathepsin K (CTSK) (Homo sapiens, UniProt P43235); assay: Counter-screening of CTSL1 FRET substrates with Cathepsin K; assay type: biochemical; settings: specific activity
T3 sequence (P43235 115-329): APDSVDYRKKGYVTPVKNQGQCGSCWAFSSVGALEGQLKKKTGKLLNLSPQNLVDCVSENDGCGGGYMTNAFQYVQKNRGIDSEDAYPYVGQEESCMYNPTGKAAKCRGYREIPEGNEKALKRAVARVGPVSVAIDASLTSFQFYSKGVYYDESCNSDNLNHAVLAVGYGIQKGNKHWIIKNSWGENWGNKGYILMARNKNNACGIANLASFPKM
Procedure: Counter-screening of CTSL1_1 and CTSL1_2 was performed with the enzyme Cathepsin K (CTSK). […] For comparison, the specific activity for reference substrates such as Z-LR-AMC and Z-FR-AMC is 15,000-25,000 pmol/min/μg, with the average value indicated by a dashed line in FIG. 47.

CTSL1 [2] = biological target: T4, CTSL1 (Homo sapiens, UniProt P07711); assay: In vitro FRET kinetics with CTSL1; assay type: biochemical
T4 sequence (P07711 114-333): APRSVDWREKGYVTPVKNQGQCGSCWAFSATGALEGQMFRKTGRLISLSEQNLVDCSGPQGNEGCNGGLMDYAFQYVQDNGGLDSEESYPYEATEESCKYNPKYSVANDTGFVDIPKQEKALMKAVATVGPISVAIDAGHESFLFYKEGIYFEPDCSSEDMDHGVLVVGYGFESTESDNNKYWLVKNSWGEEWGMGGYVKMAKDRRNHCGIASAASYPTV
Procedure: as §2
(§7) For CTSL1, enzyme was activated by pre-incubation in assay buffer (50 mM MES, 5 mM DTT, 1 mM EDTA, pH=6) for 15 min. MSP-MS reactions were then started with the mixing of enzyme and substrate, at final CTSL1 concentration of 0.04 ng/μl (0.77 nM), and peptide substrate concentration at 500 nM.
Additional in vitro kinetic experiments were performed to characterize a new candidate motif for CTSL1 enzyme; the CTSL1_2 motif has the sequence […] (SEQ ID NO: 199). […] Yet, initial experiments with the CTSL1_2 FRET substrate were inconclusive, possibly due to artifacts in the FRET assay; therefore, a new FRET peptide construct was designed with the 9-mer sequence […] (SEQ ID NO: 236).
All of the FRET substrates used in these studies have a methoxycoumarin (Mca) fluorophore and dinitrophenyl-lysyl (Dnp) quencher pair at the N- and C-termini of the sequences, respectively.

CTSL1 [3] = biological target: T4, CTSL1; assay: 30-mer tandem linker library MSP-MS, CTSL1; assay type: biochemical
Procedure: as §1, §2, §7
This hypothesis was tested in the context of the hybrid linker design experiment. Shown in FIG. 46 are the results of cleavage of two matched 30-mer peptides with the following sequences:
(§8) To analyze the catalytic efficiency of candidate tandem linker designs, a tailored library approach using MSP-MS was applied. For the tailored library, a set of nineteen synthetic peptides, 30 amino acids in length (30-mers), were designed to test whether sequence context affects the efficiency of cleavage. Peptides were assayed in a multiplex format together as a substrate library with individual recombinant enzymes, using MSP-MS. For quantitative comparisons, kinetic analysis was performed over a time course, and results are reported either as a catalytic efficiency kcat/KM for well-behaved first-order kinetics, or as observed rates as kobs for more complex kinetic behavior.
as §4, §5

[4] = tested on: activated T cells relative to NK cells; settings: cited from earlier work
[5] = cited from earlier work
Thrombin = biological target: T5, Thrombin (Homo sapiens, UniProt P00734); assay: 30-mer library counter-screening MSP-MS, Thrombin; assay type: biochemical
T5 construct: purchased R&D Systems (Bio-techne) 2196-SE-200
Procedure: as §1, §2
Thrombin was activated following the manufacturer's recommended conditions by pre-incubation with the enzyme with thermolysin for 15 min, and then the thermolysin was quenched with 1,10 phenanthroline treatment. Activated thrombin was assayed at 1.2 nM in activation buffer: 50 mM TRIS HCl, 10 mM CaCl2, 150 mM NaCl, 0.05% (w/v) Brij-35, pH 7.5.
as §3, §4, §5, §6

FAPα = biological target: T6, FAPα (Homo sapiens, UniProt Q12884); assay: 30-mer tandem linker library MSP-MS, FAPα; assay type: biochemical
T6 construct: purchased R&D Systems (Bio-techne) 930-ADB-010
T6 sequence (Q12884 1-760): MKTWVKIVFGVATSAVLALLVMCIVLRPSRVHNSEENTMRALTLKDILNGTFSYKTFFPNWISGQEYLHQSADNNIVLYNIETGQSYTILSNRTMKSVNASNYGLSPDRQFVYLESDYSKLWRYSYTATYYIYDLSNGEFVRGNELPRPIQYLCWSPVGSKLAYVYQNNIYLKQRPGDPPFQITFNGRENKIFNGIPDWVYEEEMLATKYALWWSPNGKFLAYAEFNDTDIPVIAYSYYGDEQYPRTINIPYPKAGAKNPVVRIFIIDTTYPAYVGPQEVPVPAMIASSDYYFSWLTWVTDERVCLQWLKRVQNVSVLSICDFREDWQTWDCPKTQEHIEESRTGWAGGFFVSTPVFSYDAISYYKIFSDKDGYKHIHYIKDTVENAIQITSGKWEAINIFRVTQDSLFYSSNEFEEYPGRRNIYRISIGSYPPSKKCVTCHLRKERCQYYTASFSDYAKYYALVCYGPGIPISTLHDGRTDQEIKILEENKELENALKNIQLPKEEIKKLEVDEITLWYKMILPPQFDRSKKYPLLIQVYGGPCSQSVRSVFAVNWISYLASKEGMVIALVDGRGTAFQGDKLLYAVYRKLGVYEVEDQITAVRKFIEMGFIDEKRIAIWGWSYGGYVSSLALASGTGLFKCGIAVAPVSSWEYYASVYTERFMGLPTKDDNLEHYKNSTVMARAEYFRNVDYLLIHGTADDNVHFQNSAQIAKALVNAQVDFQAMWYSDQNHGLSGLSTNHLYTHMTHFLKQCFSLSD
Procedure: as §1, §2
FAPα activity was tested with fluorescence detection using a generic Z-GP-AMC substrate. For FRET assays, the final enzyme concentration was 5 nM and the buffer was 50 mM TRIS HCl, 1 M NaCl, 1 mg/mL BSA, pH 7.5.
as §8, §4, §5

MMP9 = biological target: T7, MMP9 (Homo sapiens, UniProt P14780); assay: 30-mer tandem linker library MSP-MS, MMP9; assay type: biochemical
T7 construct: purchased R&D Systems (Bio-techne) 911-MP-010
T7 sequence (P14780 107-707 limits assumed): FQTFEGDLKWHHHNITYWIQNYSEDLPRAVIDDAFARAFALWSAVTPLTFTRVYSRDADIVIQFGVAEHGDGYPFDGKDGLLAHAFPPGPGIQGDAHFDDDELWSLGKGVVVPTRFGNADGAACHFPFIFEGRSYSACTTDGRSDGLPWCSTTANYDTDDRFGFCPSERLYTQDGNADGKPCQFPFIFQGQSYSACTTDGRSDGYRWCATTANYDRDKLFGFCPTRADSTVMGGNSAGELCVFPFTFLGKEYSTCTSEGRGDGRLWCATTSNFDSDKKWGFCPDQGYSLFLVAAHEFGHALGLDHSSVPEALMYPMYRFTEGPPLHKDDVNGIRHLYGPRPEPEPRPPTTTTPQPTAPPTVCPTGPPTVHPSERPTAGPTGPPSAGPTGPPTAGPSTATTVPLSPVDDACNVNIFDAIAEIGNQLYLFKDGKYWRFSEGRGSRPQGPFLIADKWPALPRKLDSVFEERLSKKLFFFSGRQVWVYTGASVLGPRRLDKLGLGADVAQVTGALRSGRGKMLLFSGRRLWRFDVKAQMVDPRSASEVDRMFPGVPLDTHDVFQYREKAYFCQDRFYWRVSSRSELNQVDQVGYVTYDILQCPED
Procedure: as §1, §2
MMP9 was activated by incubation with 1 mM p-amino phenyl mercuric acetate (prepared from a stock at 100 mM in DMSO) for 24h at 37° C. in activation buffer: 50 mM TRIS HCl (pH 7.5), 10 mM CaCl2, 150 mM NaCl, 0.05% Brij35. The final enzyme concentration used for fluorescence assays was 2.5 nM.
To analyze the catalytic efficiency of candidate tandem linker designs, a tailored library approach using MSP-MS was applied. […] For quantitative comparisons, kinetic analysis was performed over a time course, and results are reported either as a catalytic efficiency kcat/KM for well-behaved first-order kinetics, or as observed rates as kobs for more complex kinetic behavior. […]

[6] = matched 30-mer peptides SEQ ID NO: 207 (CTSL1_1) and 219 (CTSL1_2)

T1 sequence (P00742 235-488 limits assumed): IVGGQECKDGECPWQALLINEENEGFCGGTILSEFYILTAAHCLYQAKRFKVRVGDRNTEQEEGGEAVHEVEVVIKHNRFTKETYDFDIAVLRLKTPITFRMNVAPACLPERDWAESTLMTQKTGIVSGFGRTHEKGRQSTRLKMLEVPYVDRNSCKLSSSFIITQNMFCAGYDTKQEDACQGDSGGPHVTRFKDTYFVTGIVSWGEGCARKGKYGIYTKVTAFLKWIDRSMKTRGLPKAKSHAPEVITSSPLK
T1 sequence (P00742 41-179 partner limits assumed): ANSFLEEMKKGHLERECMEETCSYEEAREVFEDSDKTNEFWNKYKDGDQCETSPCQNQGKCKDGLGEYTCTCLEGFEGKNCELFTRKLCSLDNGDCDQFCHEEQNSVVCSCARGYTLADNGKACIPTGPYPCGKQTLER

KGGALFKSSFPGGPAGIGPLAQKLKSSGGS [Alu30-5]
Relative efficiency of 30-mer peptide cleavage by Factor Xa (Factor Xa): significant cleavage

SGPLAQKLKSSGPAGLYAQALFKSSFPGSK [Alu30-16]
Activity toward the full set of five targeted enzymes [1]: generally high activity
Susceptibility to thrombin, Factor Xa, and hepsin [1]: lowest susceptibility

ALFFSSPP (also: FRET fluorophore and quencher) [CTSL1_2]
Relative efficiency of cleavage by hepsin (Hepsin): cleaved at a much slower rate than CTSL1_1
Cleavage by CTSK, lower level than the CTSL1_1 substrate (Cathepsin K (CTSK)): 15 ×
Cleavage of 8-mer FRET substrate by CTSL1 (CTSL1 [2]; 8-mer FRET peptide, Mca/Dnp pair): not cleaved
Cleavage of 9-mer FRET substrate by CTSL1 (CTSL1 [2]; 9-mer sequence ALFFSSPPS (SEQ ID NO: 236)): comparable catalytic efficiency to the CTSL1_1 motif; also recorded: cleaved as a 9-mer FRET peptide
Relative efficiency of 30-mer peptide cleavage by CTSL1 (CTSL1 [3]): rapidly cleaved
+1 site product formation by CTSL1 (CTSL1 [3]; [6]): more rapidly formed
−1 site product formation by CTSL1 (CTSL1 [3]; [6]): did not

Bay 50-4798: IL-2 variant IL2/N88R, clinically tested as a low-toxicity version of IL-2
Selectivity of stimulated proliferation [4]: selectively stimulate the proliferation of activated T cells relative to NK cells
Levels of CD4+CD25+ T cells in clinical trials ([5]; cancer patients and HIV patients): increased the levels of CD4+CD25+ T cells
Safety and tolerability in clinical trials ([5]; human, in vivo): considerably safer and more tolerable than aldesleukin

RGSGGGPAGLYAQGSGGGPAGLYAQGGSGK [Alu30-2]
Relative efficiency of 30-mer peptide cleavage by thrombin (Thrombin): less susceptible to thrombin
Relative efficiency of 30-mer peptide degradation by FAPα (FAPα): efficiently cleaved
Relative efficiency of 30-mer substrate degradation/cleavage by MMP9 (MMP9): more efficient than the Alu30-1 peptide

SGGFPRSGGSFNPRTFGSKRKRRGSRGGGG [Alu30-19, reference compound]
Time to complete degradation by Factor Xa (Factor Xa): < 5 min
Time to cleavage at all three motifs by hepsin (Hepsin): ≤ 15 min
Apparent catalytic efficiency, hepsin (Hepsin; order of magnitude): ~10^5 M^−1s^−1
